Consider 28 molecules from patent US7026443.

Read-outs that look alike come from different tables or passages of the source.

Experiment [1] addresses HLA-A*3301 (human). In words: competition with 125I-labelled standard peptide for purified HLA, gel filtration.
Experiment [2] has as its target HLA-A*3101 (human). The experiment is described as above.
For experiment [3], the target named is HLA-A*6801 (human). Described as above.
Experiment [4] addresses HLA-A*1101 (human). Described as above.
For experiment [5], the target named is HLA-A*0301 (human). Described as above.
Experiment [6] deals with HLA-A*0301 (human). In words: competition with 125I-labelled standard probe peptide for purified HLA-A*0301, gel filtration.
For experiment [7], the target named is HLA-A*1101 (human). Description: inhibition of 125I-labeled standard peptide binding to purified HLA-A*1101, gel filtration. In general terms: Size exclusion chromatography separates by hydrodynamic size, large species first.
Experiment [8] addresses HLA-A*0301 (human). Description: competition with 125I-labelled standard peptide for purified HLA-A*0301, gel filtration.
The target in experiment [9] is HLA-A*0301 (human). In words: competition with a 125I-labelled standard peptide for purified HLA-A*0301, bound and free separated by gel filtration.
Experiment [10] has as its target HLA-A*0101 (human).
Experiment [11] addresses HLA-A*0201 (human). Description: competition with 125I-labelled standard peptide on purified HLA, gel filtration. The conditions noted are these: remark: other sources report otherwise.
The target in experiment [12] is HLA-A*0206 (human). Described as above. The conditions noted are these: remark: other sources report otherwise.
Experiment [13] has as its target HLA-A*0203 (human). The experiment is described as above. The conditions noted are these: remark: other sources report otherwise.
The target in experiment [14] is HLA-A*0101 (human). The source holds these as a separate data set.
The target of experiment [15] is HLA-A*1101 (human).
For experiment [16], the target named is HLA-B*5101 (human).
In experiment [17] the target is HLA-B*5301 (human).
Experiment [18] deals with HLA-B*3501 (human).
Experiment [19] deals with HLA-B*5401 (human).
The target in experiment [20] is HLA-B*0702 (human).
Experiment [21] concerns the target HLA-A*0301 (human). In words: competition with 125I-labeled standard peptide for purified HLA-A*0301, gel filtration.
Experiment [22] has as its target HLA-A*1101 (human). In words: competition with 125I-labelled probe peptide for purified HLA, gel filtration. The conditions noted are these: scale: ratio.
Experiment [23] addresses HLA-A*0301 (human). Described as above. As to conditions: scale: ratio.
Experiment [24] addresses HLA-A*1101 (human). Description: competition with 125I-labeled standard peptide for purified HLA-A*1101, gel filtration. The conditions noted are these: scale: ratio.
Experiment [25] concerns the target purified HLA-A*0201 molecules (human).
The target of experiment [26] is HLA-A*2402 (human). Description: inhibition of 125I-labelled standard peptide binding to purified HLA-A*2402, gel filtration.
The target in experiment [27] is HLA-A*0301 (human).

Take CMSCCRSSR (modifications not checked): the binding affinity ratio (IC50 of standard peptide / IC50 of test peptide) in [1] came out at 0.12; in [2], 0.082; in experiment [3], 0.0011; in experiment [4], 0.0001; in [5] it was 0.0033.
Take EGTGCNGWF (modifications not checked) [HPV16 E1 peptide … (position 11, 9 amino acids)]: the binding affinity ratio relative to the standard peptide (IC50 standard / IC50 test) in experiment [6] amounted to 0.0008.
With GDTPEWIQR (modifications not checked) [HPV16 E1 334 …], in experiment [7], the relative binding ratio (IC50 of standard peptide / IC50 of test peptide) turned out to be 0.0002. In experiment [8], the binding affinity ratio (IC50 of standard peptide / IC50 of test peptide) (ratio to standard peptide) came out at 0.0008.
For the molecule EGTGCNGWFY (modifications not checked) [HPV18 E1 peptide … (position 10, 10 amino acids)], the relative binding ratio (IC50 of standard peptide / IC50 of test peptide) (ratio to standard peptide) in experiment [9] stood at 0.0005.
KISEYRHYCY (modifications not checked) [HPV16 E6 79 …]: in [10], the binding affinity ratio (IC50 of standard peptide / IC50 of test peptide) amounted to 0.009.
YAVCDKCLK (modifications not checked): the binding affinity ratio (IC50 of standard peptide / IC50 of test peptide) in experiment [2] was found to be 0.0015; in experiment [3] it was 0.012; in experiment [4] it was 0.001; in experiment [5], 0.0003.
For LSFVCPWCA (modifications not checked) [HPV45 E7 peptide … (position 95, 9 amino acids)], in [9], the relative binding ratio (IC50 of the standard peptide / IC50 of the test peptide) was 0.0005.
As to YMLDLQPETT (modifications not checked) [HPV16 E7 11 …], the figures for the binding affinity ratio (IC50 of standard peptide / IC50 of test peptide) in experiment [11], in experiment [12] and in experiment [13] were 0.15, 1.7 and 0.0001, respectively.
For the molecule EGTGCNGWF (modifications not checked) [HPV18 E1 peptide … (position 10, 9 amino acids)], the relative binding ratio (IC50 of standard peptide / IC50 of test peptide) (ratio to standard peptide) in experiment [9] was determined as 0.0008.
Take IHDIILECVY (modifications not checked) [… (HPV16 E6, position 30, 10 amino acids)]: the relative binding ratio (IC50 of standard peptide / IC50 of test peptide) in experiment [14] came out at 0.028.
On to EGTGCNGWF (modifications not checked) [HPV45 E1 peptide … (position 10, 9 amino acids)], for which the binding affinity ratio (IC50 of standard peptide / IC50 of test peptide) (ratio to standard peptide) in experiment [6] is 0.0008.
With KISEYRHYCY (modifications not checked) [… (HPV16 E6, position 79, 10 amino acids)], the relative binding ratio (IC50 of standard peptide / IC50 of test peptide) in [14] was found to be 0.009. The binding affinity ratio (IC50 of standard peptide / IC50 of test peptide) (ratio to standard peptide) in [15] stood at 0.0038.
For the molecule KAAMLAKFK (modifications not checked) [HPV16 E1 204 …], the relative binding ratio (IC50 of standard peptide / IC50 of test peptide) in experiment [7] came out at 0.18. The binding affinity ratio (IC50 of standard peptide / IC50 of test peptide) (ratio to standard peptide) in experiment [8] was found to be 0.11.
Take GMVVLLLVR (modifications not checked) [HPV16 E1 272 …]: in experiment [7], the relative binding ratio (IC50 of standard peptide / IC50 of test peptide) came to 0.0082. The binding affinity ratio (IC50 of standard peptide / IC50 of test peptide) (ratio to standard peptide) in experiment [8] stood at 0.0036.
As to QPPKLRSSVA (modifications not checked) [HPV18 E1 315 peptide …], the binding affinity ratio (IC50 of standard peptide / IC50 of test peptide) turned out to be 0.0002 in [16], 0.0002 in [17], 0.0003 in experiment [18] and 0.039 in experiment [19].
For QPFILYAHI (modifications not checked) [HPV18 E1 263 peptide …], the binding affinity ratio (IC50 of standard peptide / IC50 of test peptide) in experiment [16] was 0.21; in [17], 0.0017; in experiment [18], 0.0003; in [20] it was 0.0002; in experiment [19] it was 0.0034.
Regarding TLGIVCPI (modifications not checked) [HPV16 E7 86 TLGIVCPI], the binding affinity ratio (IC50 of standard peptide / IC50 of test peptide) in [11] was 0.15; in experiment [12] it was 0.54; in [13] it was 0.0005.
For LIRCINCQK (modifications not checked), the binding affinity ratio (IC50 of standard peptide / IC50 of test peptide) turned out to be 0.0041 in [1]; 0.0012 in experiment [2]; 0.0021 in experiment [3]; 0.0009 in [4]; 0.0025 in experiment [5].
With WLQPLADAK (modifications not checked) [HPV16 E1 peptide … (position 509, 9 amino acids)], in [21], the relative binding ratio (IC50 of standard peptide / IC50 of test peptide) came out at 0.0005. In addition, the binding affinity ratio (relative to standard peptide) in [22] turned out to be 0.0002; in [23], 0.0005. For the same molecule, in experiment [24], the relative binding ratio (A*1101) came to 0.0002.
Turning to QLKCPPLLI (modifications not checked) [HPV31 E1 peptide … (position 536, 9 amino acids)], the relative binding ratio (IC50 of standard peptide / IC50 of test peptide) in experiment [25] was determined as 0.0049.
For SLACSWGMV (modifications not checked) [HPV31 E1 peptide … (position 246, 9 amino acids)], in experiment [25], the relative binding ratio (IC50 of standard peptide / IC50 of test peptide) worked out at 0.082.
In the case of VVLLLVRYK (modifications not checked) [HPV16 E1 peptide … (position 274, 9 amino acids)], the relative binding ratio (IC50 of standard peptide / IC50 of test peptide) in experiment [21] was found to be 1. Moreover, the binding affinity ratio (relative to standard peptide) was 0.36 in experiment [22] and 1 in [23]. For the same molecule, the relative binding ratio (A*1101) in experiment [24] turned out to be 0.36.
With WPYLESRITV (modifications not checked) [HPV18 E1 583 peptide …], the binding affinity ratio (IC50 of standard peptide / IC50 of test peptide) in experiment [16] amounted to 0.055; in experiment [17], 0.014; in experiment [18], 0.0066; in experiment [20], 0.0067; in [19] it was 0.024.
For CMCCKCEARI (modifications not checked) [… (HPV18 E7, position 63, 10 amino acids)], the relative binding ratio (IC50 of standard peptide / IC50 of test peptide) in [26] worked out at 0.0001.
HYSDSVYGDTL (modifications not checked) [… (HPV18 E6, position 80, 11 amino acids)]: in experiment [26], the relative binding ratio (IC50 of standard peptide / IC50 of test peptide) amounted to 0.0069.
For the molecule EGTGCNGWFY (modifications not checked) [HPV16 E1 peptide … (position 11, 10 amino acids)], in [6], the binding affinity ratio relative to the standard peptide (IC50 standard / IC50 test) was found to be 0.0005.
On to ISEYRHYCY (modifications not checked) [HPV16 E6 80 …], for which the binding affinity ratio (IC50 of standard peptide / IC50 of test peptide) in experiment [10] (remark: other sources report otherwise) came to 0.31.
Turning to DCATMCRHY (modifications not checked) [HPV16 E1 peptide … (position 404, 9 amino acids)], the relative binding ratio (IC50 of standard peptide / IC50 of test peptide) (ratio to standard peptide) in [14] came out at 0.0011; in [27] it was 0.0001.
